Where two headings read alike, the source gives them in different places.
T1: human BCMA (full-length, on cells) (human, UniProt Q02223 1-184)
T1 sequence: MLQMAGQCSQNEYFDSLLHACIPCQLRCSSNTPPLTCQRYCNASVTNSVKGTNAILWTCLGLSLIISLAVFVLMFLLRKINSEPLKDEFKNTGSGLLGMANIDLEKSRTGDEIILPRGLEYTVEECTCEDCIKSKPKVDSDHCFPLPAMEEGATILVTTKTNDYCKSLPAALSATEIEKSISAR

T2: cyno CD3E&G-His/Free (cynomolgus monkey, UniProt Q95LI5 22-117; Q95LI7 23-113)
T2 construct: Bought recombinant heterodimer; also called monkey CD3 E&G
T2 sequence (looked up) 1: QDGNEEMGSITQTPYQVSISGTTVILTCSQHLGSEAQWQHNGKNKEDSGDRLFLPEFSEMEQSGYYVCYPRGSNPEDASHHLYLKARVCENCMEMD
T2 sequence (looked up) 2: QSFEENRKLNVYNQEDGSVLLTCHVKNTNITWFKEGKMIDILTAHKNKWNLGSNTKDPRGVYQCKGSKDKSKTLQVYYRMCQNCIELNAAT


Assays:
[1] = molecular target: T1, human BCMA (full-length, on cells); experiment: cell-based or functional assay
[2] = molecular target: T1, human BCMA (full-length, on cells); experiment: cell-based or functional assay; remark: listed apart in the source
[3] = molecular target: T1, human BCMA (full-length, on cells); experiment: flow cytometry, GS-CHO-hBCMA cells
[4] = molecular target: T3, cynomolgus monkey BCMA (full-length, on cells) (cynomolgus monkey, UniProt A0A2K5UD97 1-183); experiment: flow cytometry, GS-CHO-cynoBCMA cells
T3 construct: whole, on cells; also called cynoBCMA; GS-CHO-cynoBCMA
T3 sequence (A0A2K5UD97 entry or part of it): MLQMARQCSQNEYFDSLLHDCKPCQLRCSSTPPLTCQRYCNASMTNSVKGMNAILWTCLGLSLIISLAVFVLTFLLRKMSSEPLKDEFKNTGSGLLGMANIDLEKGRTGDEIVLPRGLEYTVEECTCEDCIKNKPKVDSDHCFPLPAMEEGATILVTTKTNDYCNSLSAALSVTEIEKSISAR

Cyno BCMA-His = molecular target: T4, Cyno BCMA-His (cynomolgus monkey, UniProt A0A2K5UD97 1-53); experiment: BLI (Octet), 1:1 fit
T4 construct: also called Cyno BCMA (ACRO BCA-C52H7); monkey BCMA
T4 sequence (A0A2K5UD97 entry or part of it): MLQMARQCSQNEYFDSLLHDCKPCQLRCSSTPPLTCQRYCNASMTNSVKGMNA

human CD3E&G-His/Free = molecular target: T5, human CD3E&G-His/Free (human, UniProt P07766 23-126; P09693 23-116); experiment: BLI (Octet), 1:1 fit
T5 construct: Bought recombinant heterodimer; 'His/Free' as printed (one chain His-tagged); also called human CD3 E&G heterodimer
T5 sequence (P07766 23-126, chain 1 of 2): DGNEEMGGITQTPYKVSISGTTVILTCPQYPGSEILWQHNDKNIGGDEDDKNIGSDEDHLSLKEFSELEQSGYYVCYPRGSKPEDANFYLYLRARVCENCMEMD
T5 sequence (P09693 23-116, chain 2 of 2): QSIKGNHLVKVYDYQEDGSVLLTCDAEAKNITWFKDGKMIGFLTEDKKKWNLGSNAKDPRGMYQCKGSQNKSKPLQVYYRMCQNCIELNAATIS

[5] = molecular target: T6, human CD3 (on Jurkat cells and human T cells) (human, UniProt P07766 23-207); experiment: flow cytometry, human CD4 T cells
T6 construct: whole, on cells; the other chains of the complex on the cells are not described; also called CD3E
T6 sequence (P07766 23-207): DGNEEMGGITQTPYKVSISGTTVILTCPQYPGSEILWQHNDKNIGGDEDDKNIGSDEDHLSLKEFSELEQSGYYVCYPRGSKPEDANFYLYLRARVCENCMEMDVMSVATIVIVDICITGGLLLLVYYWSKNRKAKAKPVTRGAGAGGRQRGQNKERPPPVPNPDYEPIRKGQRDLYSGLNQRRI

[6] = molecular target: T6, human CD3 (on Jurkat cells and human T …); experiment: flow cytometry, human CD8 T cells
[7] = molecular target: T1, human BCMA (full-length, on cells); experiment: flow cytometry, GS-CHO-hBCMA cells; remark: listed apart in the source
[8] = molecular target: T1, human BCMA (full-length, on cells); experiment: cell-based or functional assay; remark: listed apart in the source
[9] = molecular target: T6, human CD3 (on Jurkat cells and human T …); experiment: flow cytometry, Jurkat cells
cyno CD3E&G-His/Free = molecular target: T2, cyno CD3E&G-His/Free; experiment: BLI (Octet), 1:1 fit
[10] = molecular target: human GPRC5D (full-length, on cells) (human, UniProt Q9NZD1 1-345); experiment: cell-based or functional assay
Sequence of human GPRC5D (full-length, on cells) (Q9NZD1 whole entry): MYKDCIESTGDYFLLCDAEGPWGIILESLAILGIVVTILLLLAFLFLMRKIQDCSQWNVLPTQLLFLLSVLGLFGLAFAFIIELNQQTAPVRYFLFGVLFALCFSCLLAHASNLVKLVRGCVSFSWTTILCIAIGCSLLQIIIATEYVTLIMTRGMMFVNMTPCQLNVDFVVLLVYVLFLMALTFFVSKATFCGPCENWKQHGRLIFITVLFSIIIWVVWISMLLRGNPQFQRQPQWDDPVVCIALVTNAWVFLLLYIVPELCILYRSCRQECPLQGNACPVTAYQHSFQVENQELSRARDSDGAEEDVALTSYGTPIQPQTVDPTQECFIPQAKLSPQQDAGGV

Binder	EC50 of PBMC killing of H929 ko GPRC5D cells, donor1 [1]	EC50 of PBMC killing of H929 ko GPRC5D cells (LDH) [2]	EC50 [3]	EC50 [4]	Kd (Cyno BCMA-His)	koff (Cyno BCMA-His)	kon (Cyno BCMA-His)	Kd (human CD3E&G-His/Free)	koff (human CD3E&G-His/Free)	kon (human CD3E&G-His/Free)	EC50 [5]	EC50 [6]	EC50 of PBMC killing of H929 ko GPRC5D cells (LDH) [8]	EC50 [9]	Kd (cyno CD3E&G-His/Free)	koff (cyno CD3E&G-His/Free)	kon (cyno CD3E&G-His/Free)	other results
Roche-BCMA/CD3 (Alnuctamab) (bispecific antibody, human IgG1, kappa, L234A L235A, also called Roche-BCMAxCD3) EVQLLESGGGLVQPGGSLRLSCAASGFTFSTYAMNWVRQAPGKGLEWVSRIRSKYNNYATYYADSVKGRFTISRDDSKNTLYLQMNSLRAEDTAVYYCVRHGNFGNSYVSWFAYWGQGTLVTVSSASVAAPSVFIFPPSDEQLKSGTASVVCLLNNFYPREAKVQWKVDNALQSGNSQESVTEQDSKDSTYSLSSTLTLSKADYEKHKVYACEVTHQGLSSPVTKSFNRGEC heavy 1: not shown light: EIVLTQSPGTLSLSPGERATLSCRASQSVSDEYLSWYQQKPGQAPRLLIHSASTRATGIPDRFSGSGSGTDFTLAISRLEPEDFAVYYCQQYGYPPDFTFGQGTKVEIKRTVAAPSVFIFPPSDRKLKSGTASVVCLLNNFYPREAKVQWKVDNALQSGNSQESVTEQDSKDSTYSLSSTLTLSKADYEKHKVYACEVTHQGLSSPVTKSFNRGEC heavy 2: EVQLLESGGGLVQPGGSLRLSCAASGFTFSDNAMGWVRQAPGKGLEWVSAISGPGSSTYYADSVKGRFTISRDNSKNTLYLQMNSLRAEDTAVYYCAKVLGWFDYWGQGTLVTVSSASTKGPSVFPLAPSSKSTSGGTAALGCLVEDYFPEPVTVSWNSGALTSGVHTFPAVLQSSGLYSLSSVVTVPSSSLGTQTYICNVNHKPSNTKVDEKVEPKSCDKTHTCPPCPAPEAAGGPSVFLFPPKPKDTLMISRTPEVTCVVVDVSHEDPEVKFNWYVDGVEVHNAKTKPREEQYNSTYRVVSVLTVLHQDWLNGKEYKCKVSNKALGAPIEKTISKAKGQPREPQVCTLPPSRDELTKNQVSLSCAVKGFYPSDIAVEWESNGQPENNYKTTPPVLDSDGSFFLVSKLTVDKSRWQQGNVFSCSVMHEALHNHYTQKSLSLSPGK	0.0045 nM	0.0161 nM	3.08 nM	3.81 nM	0.89 nM	0.00125 s⁻¹	1.4e+06 M⁻¹ s⁻¹	13 nM	0.00469 s⁻¹	361000 M⁻¹ s⁻¹								
REGN-BCMA/CD3 (REGN5458) (bispecific antibody) VH: EVQLVESGGGLVQPGGSLRLSCAASGFTFSNFWMTWVRQAPGKGLEWVANMNQDGSEKYYVDSVKGRFTISRDNAKSSLYLQMNSLRAEDTAVYYCARDREYCISTSCYDDFDYWGQGTLVTVSS VL: not shown EVQLVESGGGLVQPGRSLRLSCAASGFTFDDYSMHWVRQAPGKGLEWVSGISWNSGSKGYADSVKGRFTISRDNAKNSLYLQMNSLRAEDTALYYCAKYGSGYGKFYHYGLDVWGQGTTVTVSS	0.0395 nM		59.2 nM	1320 nM	14 nM	0.0108 s⁻¹	767000 M⁻¹ s⁻¹				33.4 nM	31.9 nM	0.0375 nM	12 nM				EC50 [7]: 76.1 nM; binding result (human CD3E&G-His/Free): no binding (tested: 100 nM); binding result (cyno CD3E&G-His/Free): no binding (tested: 100 nM)
B3-7F5.3 (87) (7F5.3_sp34.87_497_triFab) (trispecific antibody, human IgG1, kappa, lambda, L234A L235A, also called Exemplary antibody No. 5) heavy 1: not shown light 1: not shown heavy 2: not shown light 2: DIQMTQSPSSLSASVGDRVTITCRASQSISRYLNWYQDKPGKAPKLLIYAASSLQSGVPSRFSGSGSGTDFTLTISSLQPEDFATYYCQQKYFDITFGGGTKVEIKRTVAAPSVFIFPPSDECLKSGTASVVCLLNNFYPREAKVQWKVDNALQSGNSQESVTEQDSKDSTYSLSSTLTLSKADYEKHKVYACEVTHQGLSSPVTKSFNRGES light 3: QAVVTQEPSLTVSPGGTVTLTCRSSTGAVTTSNYANWVQKKPGQAPRGLIGGTNKRAPGVPARFSGSLLGDKAALTLLGAQPEDEAEYYCALWYSNLWVFGQGTKLTVLGQPKAAPSVTLFPPSSEELQANKATLVCLISDFYPGAVTVAWKADSSPVKAGVETTTPSKQSNNKYAASSYLSLTPEQWKSHRSYSCQVTHEGSTVEKTVAPTECS	0.167 nM				0.244 nM	0.0002 s⁻¹	821000 M⁻¹ s⁻¹	64.1 nM	0.0152 s⁻¹	236000 M⁻¹ s⁻¹					58.6 nM	0.012 s⁻¹	205000 M⁻¹ s⁻¹	
B5 (87) (hz5E12_sp34.87_497_triFab) (trispecific antibody, human IgG1, kappa, lambda, L234A L235A, also called Exemplary antibody No. 3) heavy 1: not shown light 1: DIVMTQSPDSLAVSLGERATINCRASESVDSYGITFMNWYQQKPGQPPKLLIYAASNQGSGVPDRFSGSGSGTDFTLTISSLQAEDVAVYYCQQSKEVPWTFGQGTKLEIKRTVAAPSVFIFPPSDEQLKSGTASVVCLLNNFYPREAKVQWKVDNALQSGNSQESVTEQDSKDSTYSLSSTLTLSKADYEKHKVYACEVTHQGLSSPVTKSFNRGEC heavy 2: not shown light 2: QAVVTQEPSLTVSPGGTVTLTCRSSTGAVTTSNYANWVQKKPGQAPRGLIGGTNKRAPGVPARFSGSLLGDKAALTLLGAQPEDEAEYYCALWYSNLWVFGQGTKLTVLGQPKAAPSVTLFPPSSEELQANKATLVCLISDFYPGAVTVAWKADSSPVKAGVETTTPSKQSNNKYAASSYLSLTPEQWKSHRSYSCQVTHEGSTVEKTVAPTECS light 3: DIQMTQSPSSLSASVGDRVTITCRASQSISRYLNWYQDKPGKAPKLLIYAASSLQSGVPSRFSGSGSGTDFTLTISSLQPEDFATYYCQQKYFDITFGGGTKVEIKRTVAAPSVFIFPPSDECLKSGTASVVCLLNNFYPREAKVQWKVDNALQSGNSQESVTEQDSKDSTYSLSSTLTLSKADYEKHKVYACEVTHQGLSSPVTKSFNRGES													0.182 nM					binding result [7]: no binding; EC50 of PBMC killing of H929 ko BCMA cells (LDH) [10]: 0.0105 nM
JNJ-BCMA/CD3 (Teclistamab) (bispecific antibody, human IgG4 S228P, lambda, F234A L235A, also called J&J BCMAxCD3) heavy 1: not shown light 1: SYVLTQPPSVSVAPGQTARITCGGNNIGSKSVHWYQQPPGQAPVVVVYDDSDRPSGIPERFSGSNSGNTATLTISRVEAGDEAVYYCQVWDSSSDHVVFGGGTKLTVLGQPKAAPSVTLFPPSSEELQANKATLVCLISDFYPGAVTVAWKGDSSPVKAGVETTTPSKQSNNKYAASSYLSLTPEQWKSHRSYSCQVTHEGSTVEKTVAPTECS heavy 2: EVQLVESGGGLVQPGGSLRLSCAASGFTFNTYAMNWVRQAPGKGLEWVARIRSKYNNYATYYAASVKGRFTISRDDSKNSLYLQMNSLKTEDTAVYYCARHGNFGNSYVSWFAYWGQGTLVTVSSASTKGPSVFPLAPCSRSTSESTAALGCLVKDYFPEPVTVSWNSGALTSGVHTFPAVLQSSGLYSLSSVVTVPSSSLGTKTYTCNVDHKPSNTKVDKRVESKYGPPCPPCPAPEAAGGPSVFLFPPKPKDTLMISRTPEVTCVVVDVSQEDPEVQFNWYVDGVEVHNAKTKPREEQFNSTYRVVSVLTVLHQDWLNGKEYKCKVSNKGLPSSIEKTISKAKGQPREPQVYTLPPSQEEMTKNQVSLTCLVKGFYPSDIAVEWESNGQPENNYKTTPPVLDSDGSFLLYSKLTVDKSRWQEGNVFSCSVMHEALHNHYTQKSLSLSLGK light 2: QTVVTQEPSLTVSPGGTVTLTCRSSTGAVTTSNYANWVQQKPGQAPRGLIGGTNKRAPGTPARFSGSLLGGKAALTLSGVQPEDEAEYYCALWYSNLWVFGGGTKLTVLGQPKAAPSVTLFPPSSEELQANKATLVCLISDFYPGAVTVAWKADSSPVKAGVETTTPSKQSNNKYAASSYLSLTPEQWKSHRSYSCQVTHEGSTVEKTVAPTECS				829 nM	17.5 nM	0.0338 s⁻¹	1.94e+06 M⁻¹ s⁻¹	15.4 nM	0.0057 s⁻¹	370000 M⁻¹ s⁻¹	25.9 nM	24.6 nM		6.39 nM	12.1 nM	0.00481 s⁻¹	396000 M⁻¹ s⁻¹	
B3-7F5.3 (24) (7F5.3_sp34.24_497_triFab) (trispecific antibody, human IgG1, kappa, lambda, L234A L235A, also called Exemplary antibody No. 6) heavy 1: not shown light 1: not shown heavy 2: not shown light 2: DIQMTQSPSSLSASVGDRVTITCRASQSISRYLNWYQDKPGKAPKLLIYAASSLQSGVPSRFSGSGSGTDFTLTISSLQPEDFATYYCQQKYFDITFGGGTKVEIKRTVAAPSVFIFPPSDECLKSGTASVVCLLNNFYPREAKVQWKVDNALQSGNSQESVTEQDSKDSTYSLSSTLTLSKADYEKHKVYACEVTHQGLSSPVTKSFNRGES light 3: QAVVTQEPSLTVSPGGTVTLTCRSSTGAVTTSNYANWVQKKPGQAPRGLIGGTNKRAPGVPARFSGSLLGDKAALTLLGAQPEDEAEYYCALWYSNLWVFGQGTKLTVLGQPKAAPSVTLFPPSSEELQANKATLVCLISDFYPGAVTVAWKADSSPVKAGVETTTPSKQSNNKYAASSYLSLTPEQWKSHRSYSCQVTHEGSTVEKTVAPTECS		0.0751 nM	7.36 nM	9.69 nM				14.4 nM	0.00874 s⁻¹	608000 M⁻¹ s⁻¹	43.4 nM	42.4 nM			10.2 nM	0.00675 s⁻¹	662000 M⁻¹ s⁻¹	

Source: patent EP4725970A1 (Fortvita Biologics Inc., dated 2026)
